Experimental data taken from publication PMC9792896, “Lack of ApoE inhibits ADan amyloidosis in a mouse model of familial Danish dementia” (The Journal of Biological Chemistry, 2022).

Molecular target: the molecule itself
Test: thioflavin-T aggregation assay; 30 μM peptide in PBS with 20 μM Th-T, pH 7.2, 100 μl in black 96-well nonbinding plate, 37 °C, fluorescence (ex 440 nm, em 495 nm) every 15 min for 18 h; peptide alone

B1: ADan amyloid peptide (peptide)
peptide: EASNCFAIRHFENKFAVETLICFNLFLNSQEKHY
notes: 34 aa amyloid peptide released by pro-protein convertases from the familial Danish dementia (FDD) mutant form of human BRI2 (ITM2B); The first 22 residues are as in wild-type BRI2; Reconstituted in hexafluoroisopropanol (1 mg/ml, 7 days), stock in dimethyl sulfoxide, diluted in PBS; also called Danish amyloid; source: synthetic peptide (ERI Amyloid Laboratory)
- binding result: binds
